Like-named read-outs stand apart in the source and are kept apart here.
What was measured:
[1] = molecular target: SARS-CoV-2 B.1.617.2 Spike Protein (R&D, Cat. #10878-CV) (SARS-CoV-2) (UniProt P0DTC2); experiment: direct ELISA on coated spike
[2] = molecular target: SARS-CoV-2 B.1.1.529 Spike Protein (Omicron) (SARS-CoV-2) (UniProt P0DTC2); experiment: BLI (ForteBio), mAb on AHC sensor, spike in solution
[3] = molecular target: SARS-CoV-2 B.1.617.2 Spike Protein (R&D, Cat. #10878-CV) (SARS-CoV-2) (UniProt P0DTC2); experiment: as above
[4] = molecular target: SARS-CoV-2 B.1.617.2 Spike Protein (R&D, Cat. #10878-CV) (SARS-CoV-2) (UniProt P0DTC2); experiment: competition ELISA: blocks biotin-ACE2 binding to coated spike
[5] = molecular target: SARS-CoV-2 B.1.617.2 Spike Protein (R&D, Cat. #10878-CV) (SARS-CoV-2) (UniProt P0DTC2); experiment: as above; remark: listed apart in the source
[6] = molecular target: Recombinant SARS-CoV-2 BA.2 Spike (GCN4-IZ) His Protein, CF (R&D, 11109-CV) (SARS-CoV-2) (UniProt P0DTC2); experiment: as above
[7] = molecular target: SARS-CoV-2 B.1.1.529 Spike Protein (Omicron) (SARS-CoV-2) (UniProt P0DTC2); experiment: as above
[8] = molecular target: SARS-CoV-2 Spike Trimer, His Tag (BA.4/Omicron) (MALS verified) (AcroBiosystems, SPN-C5229) (SARS-CoV-2) (UniProt P0DTC2); experiment: as above
[9] = molecular target: SARS-CoV-2 Spike Trimer, His Tag (BA.5/Omicron) (MALS verified) (AcroBiosystems, SPN-C522e) (SARS-CoV-2) (UniProt P0DTC2); experiment: as above

Row | Substance | EC50 [1] [nM] | Kd [2] [nM] | Kd [3] [nM] | IC50 [4] [nM] | IC50 [5] [nM] | IC50 [6] [nM] | IC50 [7] [nM] | IC50 [8] [nM] | IC50 [9] [nM]
1 | Casirivimab (antibody) | 0.0399 | 7.82 | 0.484 | 0.956 | 1.1 |  |  |  | 
2 | Bebtelovimab (antibody) |  |  |  |  |  | 3.08 | 6.73 | 4.07 | 3.46
3 | Imdevimab (antibody) | 0.0671 | 456 | 1.53 |  |  |  |  |  | 

Source: patent US20260250363A1
